Measured values as given in patent publication US20260167693A1.

Target: human CD19 (human) (UniProt P15391)
Assay: cell-based or functional assay

Chain of human CD19 (human) (P15391 20-556): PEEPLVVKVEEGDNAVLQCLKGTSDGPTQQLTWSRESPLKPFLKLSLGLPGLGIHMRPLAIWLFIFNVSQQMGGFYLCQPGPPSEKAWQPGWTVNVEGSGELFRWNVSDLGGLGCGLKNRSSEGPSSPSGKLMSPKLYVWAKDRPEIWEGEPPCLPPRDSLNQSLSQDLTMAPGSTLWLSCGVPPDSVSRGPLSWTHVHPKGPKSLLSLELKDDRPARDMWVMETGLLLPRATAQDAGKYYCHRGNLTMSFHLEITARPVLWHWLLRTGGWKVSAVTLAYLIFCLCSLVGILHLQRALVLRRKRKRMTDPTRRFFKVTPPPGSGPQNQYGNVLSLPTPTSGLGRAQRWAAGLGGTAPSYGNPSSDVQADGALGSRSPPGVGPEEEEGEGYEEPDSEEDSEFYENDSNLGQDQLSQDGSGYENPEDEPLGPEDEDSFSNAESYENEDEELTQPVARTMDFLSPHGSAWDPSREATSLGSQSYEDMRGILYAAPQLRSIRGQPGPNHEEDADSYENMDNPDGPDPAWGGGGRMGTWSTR

- NFAT-GFP (%) after overnight co-culture with RAJI cells: 30.2%
Substance: CD8SP-CD19BU12(vL-vH)-MYC-BBz-PAC
